Data published in article PMC11166458, “Caskin2 is a novel talin- and Abi1-binding protein that promotes cell motility” (Journal of Cell Science, 2024).
No end group written: not given here.

Target: talin-R7/R8 (residues 1358–1653) (mouse, UniProt P26039 1358-1653)
Assay: MST; Atto488-labeled peptide at 50–200 nM, serial dilution of recombinant R7R8 talin; 20 mM Tris-HCl pH 7.5, 200 mM NaCl, 1 mM TCEP, 0.05% Tween-20; Monolith NT.115
Details: both partners purified

- Kd: ~2700 nM
B1: Atto488-labeled Caskin2-LD peptide (peptide, UniProt Q8WXE0 1187-1202, looked up)
peptide: STMFDALADQLDAMLD
modifications: also: Atto488 label
notes: Caskin2 C-terminal LD motif peptide; limits 1187–1202 are printed for the Caskin2-LD peptide in the legend of the structure; The text names L1183 as a contact residue of the peptide, which lies outside 1187–1202; source: synthetic peptide (MPIB Core Facility)
